Laboratory results: publication PMC3538848

Assays:
[1] = biological target: A/Texas/36/1991 (H1N1) hemagglutinin ectodomain (influenza A virus A/Texas/36/1991 (H1N1))
[2] = biological target: A/Perth/16/2009 (H3N2) hemagglutinin ectodomain (influenza A virus A/Perth/16/2009 (H3N2)); test: ITC
[3] = biological target: A/Panama/2007/1999 (H3N2) hemagglutinin ectodomain (influenza A virus A/Panama/2007/1999 (H3N2)); test: ITC
[4] = biological target: A/Brisbane/10/2007 (H3N2) hemagglutinin ectodomain (influenza A virus A/Brisbane/10/2007 (H3N2)); test: ITC
[5] = biological target: A/Perth/16/2009 (H3N2) hemagglutinin ectodomain (influenza A virus A/Perth/16/2009 (H3N2)); test: BLI
[6] = biological target: A/Panama/2007/1999 (H3N2) hemagglutinin ectodomain (influenza A virus A/Panama/2007/1999 (H3N2)); test: BLI
[7] = biological target: A/Brisbane/10/2007 (H3N2) hemagglutinin ectodomain (influenza A virus A/Brisbane/10/2007 (H3N2)); test: BLI
[8] = biological target: A/Perth/16/2009 (H3N2) hemagglutinin ectodomain (influenza A virus A/Perth/16/2009 (H3N2)); test: negative-stain EM, single-particle 3D reconstruction
[9] = biological target: A/Solomon Islands/3/2006 (H1N1) hemagglutinin ectodomain (influenza A virus A/Solomon Islands/3/2006 (H1N1)); test: as above

In the case of C05 IgG (antibody), the MIC, hemagglutination inhibition (HAI) [1] is reported as > 100 µg/mL.

In the case of “C05 Fab (recombinant, for binding studies)”, the Kd [2] is reported as 26 nM, the Kd [3] is reported as 225 nM and the Kd [4] is reported as 10000 nM. The Kd [5] was 18 nM, the Kd [6] was 720 nM and the Kd [7] was > 5000 nM.

C05 Fab (Lys-C digestion of IgG) showed a stoichiometry N [8] of 3 and a stoichiometry N [9] of 3.
